Values of other authors in publication PMC4355281.

Biological target: PKA RII (UniProt P13861)
Sequence (P13861 2-404): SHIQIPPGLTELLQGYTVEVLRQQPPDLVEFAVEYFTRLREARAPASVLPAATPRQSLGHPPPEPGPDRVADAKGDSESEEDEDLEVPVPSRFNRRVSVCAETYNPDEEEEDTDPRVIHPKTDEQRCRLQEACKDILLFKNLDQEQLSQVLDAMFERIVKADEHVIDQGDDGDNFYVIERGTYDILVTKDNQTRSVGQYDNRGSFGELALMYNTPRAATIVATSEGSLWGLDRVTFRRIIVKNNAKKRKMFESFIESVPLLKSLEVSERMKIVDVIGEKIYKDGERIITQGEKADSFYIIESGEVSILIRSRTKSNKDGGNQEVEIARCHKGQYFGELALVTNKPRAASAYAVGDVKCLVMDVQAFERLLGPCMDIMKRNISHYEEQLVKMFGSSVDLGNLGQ

Chain of mAKAPβ (Q9WVC7 245-2314): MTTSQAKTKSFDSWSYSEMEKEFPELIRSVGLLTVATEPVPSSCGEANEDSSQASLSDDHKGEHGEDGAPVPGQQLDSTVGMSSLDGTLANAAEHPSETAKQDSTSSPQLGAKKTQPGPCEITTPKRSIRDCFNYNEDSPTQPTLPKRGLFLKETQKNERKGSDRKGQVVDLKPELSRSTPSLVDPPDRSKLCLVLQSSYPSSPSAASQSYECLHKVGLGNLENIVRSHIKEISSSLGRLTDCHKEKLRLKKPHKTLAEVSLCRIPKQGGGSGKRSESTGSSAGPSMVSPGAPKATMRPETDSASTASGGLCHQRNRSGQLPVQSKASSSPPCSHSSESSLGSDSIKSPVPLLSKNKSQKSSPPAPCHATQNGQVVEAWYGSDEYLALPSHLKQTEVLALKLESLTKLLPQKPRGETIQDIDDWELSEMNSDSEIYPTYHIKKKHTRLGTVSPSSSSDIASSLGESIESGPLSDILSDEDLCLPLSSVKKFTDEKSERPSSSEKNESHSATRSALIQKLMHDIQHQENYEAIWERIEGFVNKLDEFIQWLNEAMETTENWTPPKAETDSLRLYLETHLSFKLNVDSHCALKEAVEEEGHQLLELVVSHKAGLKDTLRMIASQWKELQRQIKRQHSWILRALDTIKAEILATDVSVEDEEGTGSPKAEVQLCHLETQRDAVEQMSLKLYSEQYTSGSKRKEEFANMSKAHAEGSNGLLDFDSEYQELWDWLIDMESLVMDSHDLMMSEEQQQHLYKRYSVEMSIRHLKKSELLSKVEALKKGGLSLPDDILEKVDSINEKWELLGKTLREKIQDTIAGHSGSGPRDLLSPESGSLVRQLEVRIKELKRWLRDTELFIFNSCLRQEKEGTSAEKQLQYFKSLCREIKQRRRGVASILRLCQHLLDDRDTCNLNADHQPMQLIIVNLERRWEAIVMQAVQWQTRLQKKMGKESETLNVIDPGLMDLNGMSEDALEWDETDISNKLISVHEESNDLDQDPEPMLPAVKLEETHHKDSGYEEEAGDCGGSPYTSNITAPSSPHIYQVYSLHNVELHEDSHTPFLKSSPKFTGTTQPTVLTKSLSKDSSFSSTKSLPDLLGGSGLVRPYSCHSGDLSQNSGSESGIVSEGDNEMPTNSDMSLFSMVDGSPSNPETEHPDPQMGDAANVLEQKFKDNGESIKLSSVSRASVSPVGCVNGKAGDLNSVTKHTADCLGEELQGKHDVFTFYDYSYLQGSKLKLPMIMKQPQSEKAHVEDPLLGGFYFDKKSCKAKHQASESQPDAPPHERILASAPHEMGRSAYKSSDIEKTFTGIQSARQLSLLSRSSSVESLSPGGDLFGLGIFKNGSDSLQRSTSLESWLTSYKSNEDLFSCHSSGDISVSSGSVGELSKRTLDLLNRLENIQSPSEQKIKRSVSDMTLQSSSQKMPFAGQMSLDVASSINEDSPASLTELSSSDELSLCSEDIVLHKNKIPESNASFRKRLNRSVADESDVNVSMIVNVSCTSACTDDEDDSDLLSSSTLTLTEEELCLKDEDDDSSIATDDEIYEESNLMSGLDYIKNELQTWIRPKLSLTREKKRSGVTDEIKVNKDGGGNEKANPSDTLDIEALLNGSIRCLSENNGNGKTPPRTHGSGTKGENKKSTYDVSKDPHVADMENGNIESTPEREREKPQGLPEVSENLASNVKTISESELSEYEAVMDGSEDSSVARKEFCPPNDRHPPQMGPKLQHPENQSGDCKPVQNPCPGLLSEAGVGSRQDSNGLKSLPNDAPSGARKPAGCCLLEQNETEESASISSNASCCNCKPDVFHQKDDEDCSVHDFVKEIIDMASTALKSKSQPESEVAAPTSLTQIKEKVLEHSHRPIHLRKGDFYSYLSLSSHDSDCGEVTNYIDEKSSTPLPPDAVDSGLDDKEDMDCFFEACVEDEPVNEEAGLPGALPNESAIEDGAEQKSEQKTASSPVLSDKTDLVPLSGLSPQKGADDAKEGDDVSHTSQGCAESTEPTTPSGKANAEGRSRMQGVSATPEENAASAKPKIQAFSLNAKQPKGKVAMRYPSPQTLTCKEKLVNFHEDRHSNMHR

Kd: 119 nM
Substance: mAKAPβ (from UniProt Q9WVC7)
